B1: chicken vinculin domain 1 (residues 1-258) (domain or fragment, UniProt P12003 1-258, looked up)
chain: MPVFHTRTIESILEPVAQQISHLVIMHEEGEVDGKAIPDLTAPVSAVQAAVSNLVRVGKETVQTTEDQILKRDMPPAFIKVENACTKLVRAAQMLQADPYSVPARDYLIDGSRGILSGTSDLLLTFDEAEVRKIIRVCKGILEYLTVAEVVETMEDLVTYTKNLGPGMTKMAKMIDERQQELTHQEHRVMLVNSMNTVKELLPVLISAMKIFVTTKNTKSQGIEEALKNRNFTVEKMSAEINEIIRVLQLTSWDEDAW

Experiments:
[1] = target: T1, talin IBS2 polypeptide (residues 1974-2293), His tag removed (mouse, UniProt P26039 1974-2293); assay: SEC
[2] = target: T2, His-Avi-tagged β3-integrin tail, biotinylated (UniProt P05106 742-788, biotin (biotinylated tails, held on NeutrAvidin)); assay: ELISA
T2 chain (looked up): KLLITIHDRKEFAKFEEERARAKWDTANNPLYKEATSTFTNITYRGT

[3] = target: T3, His-Avi-tagged β1A-integrin tail, biotinylated (UniProt P05556-1 752-798, biotin (biotinylated tails, held on NeutrAvidin)); assay: ELISA
T3 chain (looked up): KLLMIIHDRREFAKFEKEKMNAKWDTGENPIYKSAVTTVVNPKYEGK

[4] = tested on: β3-integrin tail; assay: ELISA-type binding of talin polypeptides to immobilized β3-integrin tails
[5] = target: B1; assay: SEC
[6] = target: T1, talin IBS2 polypeptide (residues …); assay: NMR titration

B1: binds [1].

B2: talin IBS2-B (residues 2137-2293), His/V5-tagged (domain or fragment, mouse, UniProt P26039 2137-2293, looked up)
chain: DEATKGTRALEATTEHIRQELAVFCSPEPPAKTSTPEDFIRMTKGITMATAKAVAAGNSCRQEDVIATANLSRRAIADMLRACKEAAFHPEVAPDVRLRALHYGRECANGYLELLDHVLLTLQKPNPDLKQQLTGHSKRVAGSVTELIQAAEAMKGT
B2 was tested, and the EC50 [2] was greater than 2500 nM.

B3: talin IBS2 polypeptide (residues 1974-2293), His/V5-tagged (domain or fragment, mouse, UniProt P26039 1974-2293, looked up)
chain: GTQACITAASAVSGIIADLDTTIMFATAGTLNREGAETFADHREGILKTAKVLVEDTKVLVQNAAGSQEKLAQAAQSSVATITRLADVVKLGAASLGAEDPETQVVLINAVKDVAKALGDLISATKAAAGKVGDDPAVWQLKNSAKVMVTNVTSLLKTVKAVEDEATKGTRALEATTEHIRQELAVFCSPEPPAKTSTPEDFIRMTKGITMATAKAVAAGNSCRQEDVIATANLSRRAIADMLRACKEAAFHPEVAPDVRLRALHYGRECANGYLELLDHVLLTLQKPNPDLKQQLTGHSKRVAGSVTELIQAAEAMKGT
In the case of B3, the EC50 [3] is reported as 900 ± 100 nM and the EC50 [2] is reported as 900 ± 200 nM.

B4: IBS2: recombinant murine talin residues 1974-2293, two five-helix bundles, integrin-binding site 2 (protein)
chain: GTQACITAASAVSGIIADLDTTIMFATAGTLNREGAETFADHREGILKTAKVLVEDTKVLVQNAAGSQEKLAQAAQSSVATITRLADVVKLGAASLGAEDPETQVVLINAVKDVAKALGDLISATKAAAGKVGDDPAVWQLKNSAKVMVTNVTSLLKTVKAVEDEATKGTRALEATTEHIRQELAVFCSPEPPAKTSTPEDFIRMTKGITMATAKAVAAGNSCRQEDVIATANLSRRAIADMLRACKEAAFHPEVAPDVRLRALHYGRECANGYLELLDHVLLTLQKPNPDLKQQLTGHSKRVAGSVTELIQAAEAMKGT
modifications: left off: His tag, N-terminal, kept | V5 epitope, N-terminal, kept
B4 was tested, and the “affinity for β-integrin tails, fold weaker than binding by the talin FERM domain” value [4] was roughly 2 fold.

B5: talin IBS2-A (residues 1974-2140), His/V5-tagged (domain or fragment, mouse, UniProt P26039 1974-2140, looked up)
chain: GTQACITAASAVSGIIADLDTTIMFATAGTLNREGAETFADHREGILKTAKVLVEDTKVLVQNAAGSQEKLAQAAQSSVATITRLADVVKLGAASLGAEDPETQVVLINAVKDVAKALGDLISATKAAAGKVGDDPAVWQLKNSAKVMVTNVTSLLKTVKAVEDEAT
For B5, the EC50 [2] was greater than 2500 nM.

B6: talin IBS2-A (residues 1974-2140), His tag removed (domain or fragment, mouse, UniProt P26039 1974-2140, looked up)
chain: GTQACITAASAVSGIIADLDTTIMFATAGTLNREGAETFADHREGILKTAKVLVEDTKVLVQNAAGSQEKLAQAAQSSVATITRLADVVKLGAASLGAEDPETQVVLINAVKDVAKALGDLISATKAAAGKVGDDPAVWQLKNSAKVMVTNVTSLLKTVKAVEDEAT
B6: binds [5].

KLLITIHDRKEFAKFEEERARAKWDTANNPLYKEATSTFTNITYRGT (peptide, UniProt P05106 742-788, looked up) [full-length β3-integrin tail peptide (residues 716-762)]: binds [6].

B7: talin rod polypeptide 1974-2541 (domain or fragment, UniProt P26039 1974-2541, looked up)
chain: GTQACITAASAVSGIIADLDTTIMFATAGTLNREGAETFADHREGILKTAKVLVEDTKVLVQNAAGSQEKLAQAAQSSVATITRLADVVKLGAASLGAEDPETQVVLINAVKDVAKALGDLISATKAAAGKVGDDPAVWQLKNSAKVMVTNVTSLLKTVKAVEDEATKGTRALEATTEHIRQELAVFCSPEPPAKTSTPEDFIRMTKGITMATAKAVAAGNSCRQEDVIATANLSRRAIADMLRACKEAAFHPEVAPDVRLRALHYGRECANGYLELLDHVLLTLQKPNPDLKQQLTGHSKRVAGSVTELIQAAEAMKGTEWVDPEDPTVIAENELLGAAAAIEAAAKKLEQLKPRAKPKEADESLNFEEQILEAAKSIAAATSALVKAASAAQRELVAQGKVGAIPANALDDGQWSQGLISAARMVAAATNNLCEAANAAVQGHASQEKLISSAKQVAASTAQLLVACKVKADQDSEAMKRLQAAGNAVKRASDNLVKAAQKAAAFEDQENETVVVKEKMVGGIAQIIAAQEEMLRKERELEEARKKLAQIRQQQYKFLPSELRDEH
In the case of B7, the EC50 [2] is reported as greater than 2500 nM.
